The target of this assay is SARS-CoV main protease, full-length wild type (3CLpro) (SARS-CoV) (UniProt P0C6X7). Kind of assay: AUC.

As to “SARS-CoV main protease, full-length wild type (3CLpro) (from UniProt P0C6X7) (enzyme)”, the stoichiometry N stood at 2.

These data come from paper PMC1783898.
